{
  "source": "patent US20240352438A1",
  "about": "“MEANS AND METHODS FOR DETOXIFYING OCHRATOXIN A” (DSM Austria GmbH, priority 2021, published 2024)",
  "molecules": {"B1": {"name": "SEQ ID NO: 336: another exemplary OTA-hydrolyzing polypeptide, amidohydrolase family; mature, processed species of SEQ ID NO: 337 (protein)", "chain": "VPAPPRPAVLKAARIFDSVSGHLEEPGLVVVAGAKIQAVGSDARIPDNAQVIDLGDATLMPGFIDAHVHLSSEMSDKWYEDWYKSMVRFPAEQALYGAHYAKATLEAGITTVRDLGSSDYISLGLRNAIKAGQIPGPRMLVANYAIGSTGGHADQDPVPPQRLAPAGPIQGVCNGPDECRAAVRYQLKYGADVIKFMPSGGVLSLSDPVDTPELTQEEMNAIVSEAHAWKRKVAAHCHGDRAAKMAIAAGVDSIEHGTFLQDDTLQEMKDKHIYLVPTLSAGYWVGLKADTYPPVIAEKARAASRQMQKMFQRAVKIGVPIAMGTDAGVEPHGQNAREFSLMTTNGLPPAQALLAATAKGADLLGISDQTGTLQPGKYADIVAVGGNPLLDIKATEHPLLVMKEGVIYVGGK", "modifications": "exemplary polypeptide"}, "B2": {"name": "SEQ ID NO: 348: another exemplary OTA-hydrolyzing polypeptide, amidohydrolase family; mature, processed species of SEQ ID NO: 349 (protein)", "chain": "RAHIVEPVAIKAKRVFTGVTGAVIENGVVIVDDKGRIAAISRVVPKGAKVIDLGDATLLPGFIDAHVHLSGEMSDNWYKDFRDRMLRFPAEQAHYAARNAKKTLMAGFTTVRDVGSADWQASALRNAVNAGVIVGPRILASNYAIGATGGHGDGTPFPPDRVAPDGPLKGVCNGADQCRAAVRYQIKYGADVIKFMPSGGVLSLSDPVDVPELTQDEINAIISEAHAWHRKVAAHAHGDEAARMAVKAGVDSIEHGTFLTDETLKQMKKQGTYLVATLFAGEWVGMKADNYPPAVAEKARAAAAQMQRMFARAVKIGVPIAFGTDAGVEPHGLNAHEFSLMVKNGMSPKAALLAATREAAKLLGVIDRTGTLEPGKAADMVAVRGDPLADIKATEQVIFVMKGGKIYRNEVE", "modifications": "exemplary polypeptide"}, "B3": {"name": "19 (protein)", "chain": "MLSLLAANACVADAAPAASRTIVLRAARMFDGASGKLVEHPQLTIVGNKIVRIAQSDNAEVPASAEVIDLGDATLLPGFIDAHVHLSGQSSDNWYGDFFDNMMRFPAEQALYGAYYACITLEAGFTSVRDLGSTDWVALGLRNAIDAGKVPGPRMLVSNYAVGSTGGHADQDPIPPHRLPLAGPLQGVCNGPEECRAAVRYQIKYGANVIKFMPSGGVLSLSDPVDAPELSQDEMNAVIGESHAWGRKVAAHAHGDKAAKMAVAAGVDSIEHGSFIEDDTLRAMKAKNVYLVPTISAIAHVEEKIATFPPVIAEKGRAAAAHSRQTFRHAVQIGVPIALGTDAGVGAHGTNAREFRYMVENGLTPVQSLLAGTANAARLLGIIDRVGTLEAGKLADIVAVPGNPVADITVTERPVFVMKDGVVVRRGAVR", "modifications": "polypeptide 5"}, "B4": {"name": "27 (protein)", "chain": "MDILIKGGQVFNGKDFIGKANVYIKYGKIVEVSKEVKEAKEEIDARDMFVMPGLIDAHIHLSGIKGGSLMKTMFERPEYRVLRASKWLEKLLLAGFTTVRDCGEYVSLALKRAVQEGTIKGSNIIAAGRPVTQTFGHGEISHDIPLEFSHKVGFSEFCDGTESCIHAARKILRDGSDFIKVFATGGVLSQRDKPENPQLSYDEIKAIVNEAHKVGTYVAAHAHGDAGAKIAVEAGVKTIEHGTLLKDDTLKLMVNKGVSLTPTLTIQEVIYRYGKQIGVDEWGLQKIFEVRERVADVVKKAKDYGVLMISGTDLGFETGLWDIDMGKNWYELVLLVERGGLTPKEALTTATYNSSIALGINSGFIDIGKEGDLVVIDGNPLENIYDIAKVTHVLKAGRVEVRNGKLESK", "modifications": "exemplary polypeptide"}, "B5": {"name": "28 (protein)", "chain": "MDISIKGGELFTGKELLGKFNIYIKDKKIVEISKEDKQAEVEVNAKDMFVMPGLIDAHIHLSGVKGGSLLKTMFEKPEYRVLRASKWLERLLLAGFTTVRDCGESISIALKRAVNEKIIKGPKIIAAGRPISQTFGHGELSHDLPLEFSKALSFSEFCDGVESCIHASRKVLREGADFIKIFATGGVLSQRDKPENPQLSYEEIKAIVNEAEKVNTYVAAHAHGDKGARIAIEAGVKTLEHGTLLRDDTLKLMVEKRVSLTPTLTIQELIYKYGKQIGVDEWGLEKINSVRESVAEVVRKAKEYGVLIINGTDLGFETGLDEIDMGKNWMETVLLVERGNLSNVEALRASTYNSAIAIGNDAGIIDIGRPADIIVINGNPSENIRDISKVVHVIKDGSLVVENKRLTDSL", "modifications": "exemplary polypeptide"}, "B6": {"name": "29 (protein)", "chain": "MDLGIKNGNVFNGKGVVGKVNIYVKDGKIVEISKENKQAKIEIDAKDMFVMPGLIDAHIHLTGIKGGSLLKTMFEKPEYRVLRASKWLEKLLLAGFTTVRDCGETISLALKRGVSEGIINGPRIIAAGKPISQTFGHGELSHDVPLEFSMALSFSEFCDGVESCIRASRKVLRDGADFIKIFATGGVLSQRDRPEHPQLSYEEISAIVNEAEKINTYVAAHAHGDKGARIAVEAGIKTLEHGTLLRDETLKLMRERNVTLTPTLTIQELIYKYGKQIGVDEWGLQKINEVRESVVNVVKKAEEYGVMIITGTDLGFETGLEEIDIGKNWMESVLLVERGGLSTISSLRASTYNSAFAIGINAGAIEVGKDADIIVIDGDPTENIRDLSKVRRVVKNGKLTVEDGKFL", "modifications": "exemplary polypeptide"}, "B7": {"name": "30 (protein)", "chain": "MELAIRNGIVFNGKEVIGKTNIYVREGKIVEVSREDHSAKMEIDAKDMFVMPGLIDAHIHLSGIKGGSLLKIMFEKPEYRVLRAAKWLEKLLLAGFTTVRDCGETVSLALKRAVNDGIIDGPKVIAAGKPITQTFGHGELSHDVPLEFSKTMSFSEFCDGMESCIHAARKVLRDGADFIKIFATGGVLSQRDTPEHPQLSYEEIRAIVNEAEKVNSYVAAHAHGDRGARIAIEAGVKTLEHGTLLKDETLKLMKEKNVTLTPTLTIQELIFKYGKQIGVDEWGLQKITSVRESIANVVRKAKEYGVTIISGTDLGFETGLEEIEMGKNWMETVLLVERGGLSPIEALRASTYNAAMAIGINAGVIEIGKDADIIIINGDPTQNVREISKITHVIKNGKLTVENKSIKG", "modifications": "exemplary polypeptide"}, "B8": {"name": "31 (protein)", "chain": "B7 chain with I119V", "modifications": "exemplary polypeptide"}, "B9": {"name": "32 (protein)", "chain": "B7 chain with G27E, V32I, V114L, T193R, S216T, S293N, E324D, Q382L", "modifications": "exemplary polypeptide"}, "B10": {"name": "33 (protein)", "chain": "B7 chain with V16I, R83S, V114L, D120G, T193R, S216T, S293N, E324D, Q382L, I394V", "modifications": "exemplary polypeptide"}, "B11": {"name": "34 (protein)", "chain": "B7 chain with V16I, V114L, D120G, T193R, S216T, S293N, E324D, Q382L", "modifications": "exemplary polypeptide"}, "B12": {"name": "74 (protein)", "chain": "MTTRTRILTAFLSLLAANACAADAAPAAPHTVVLRAARMFDGASGKLVDHPQLTIVGNKIVRIAQGDKAEVPAGAEVVDLGDATLLPGFIDAHVHLSGQSSDNWYGDFFDNMMRFPAEQALYGAYYARITLEAGFTSVRDVGSTDWVALGLRNAIDAGKVPGPRMLVSNYLVGSTGGHADQDPIPPHKLPLAGPLQGVCNGPEECRAAVRYQIKYGANVIKFMPSGGVLSLSDPVDAPELSQDEMNAVIGESHAWGRKVAAHAHGDKAAKMAVAAGVDSIEHGSFIEDDTLRAMKAKNVYLVPTISAIAHVEEKIGTFPPVIAEKGRAAAAHLRQTFRHAVQIGVPIALGTDAGVGAHGSNAREFRYMVENGLTPAQALLAGTANAARLLGTFDRVGTLEAGKLADVVAVPGNPIADITVTERPLFVMKDGVVVRRDAVR", "modifications": "exemplary polypeptide"}, "B13": {"name": "75 (protein)", "chain": "B12 chain with L171A, H178Q", "modifications": "exemplary polypeptide"}, "B14": {"name": "78 (protein)", "chain": "B12 chain with L171A, A307G, V311T", "modifications": "exemplary polypeptide"}, "B15": {"name": "79 (protein)", "chain": "B12 chain with L171A, A307G, V355T", "modifications": "exemplary polypeptide"}},
  "note": "Numbering of substitutions follows the chain as printed.",
  "data": [
    {"assay": "OTA detoxification activity assay (specific activity, fluorescence reduction ex/em 390/450 nm)", "assay_type": "biochemical", "conditions": "pH 6.0; 37° C.; 200 ng/mL OTA; 100 mM sodium phosphate buffer", "outline": "(§1)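 Recombinant enzyme preparation with 200 ng/mL OTA in 100 mM sodium phosphate, at pH 6.0 and pH 7.5, 37° C. Degradation followed as the fall in fluorescence at ex/em 390/450 nm. Specific activity taken from the initial linear slope; one unit degrades 1 μmol OTA per min at a starting OTA of […].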", "units": {"Specific OTA detoxification activities in U/g at pH 6.0": "U/g"}, "values": [
      {"molecule": "B1", "Specific OTA detoxification activities in U/g at pH 6.0": "~22"},
      {"molecule": "B2", "Specific OTA detoxification activities in U/g at pH 6.0": "~19"},
      {"molecule": "B3", "Specific OTA detoxification activities in U/g at pH 6.0": 8.72}
    ]},
    {"assay": "OTA detoxification activity assay (specific activity, fluorescence reduction ex/em 390/450 nm)", "assay_type": "biochemical", "conditions": "pH 7.5; 37° C.; 200 ng/mL OTA; 100 mM sodium phosphate buffer", "outline": "as §1", "values": [
      {"molecule": "B1", "Specific OTA detoxification activities in U/g at pH 7.5": "approximately 40 U/g"},
      {"molecule": "B2", "Specific OTA detoxification activities in U/g at pH 7.5": "approximately 32 U/g"},
      {"molecule": "B3", "Specific OTA detoxification activities in U/g at pH 7.5": "10.91 U/g"}
    ]},
    {"assay": "Thermostability assay: residual OTA detoxification activity after 10 min incubation at 45-99° C. (T50)", "assay_type": "physicochemical", "conditions": "0.1 mg/mL in 20 mM Tris-HCl buffer pH 7.5", "method": "(§2) Stability was determined in terms of thermostability. Notwithstanding, a person having skill in the art is aware that stability towards high temperature (e.g. more than 30° C.) often correlates with stability towards other non-standard conditions such as stability towards acidic or basic pH (e.g. below pH 6.5 or above pH 7.5, respectively), towards elevated salt concentrations, organic solvents or drying.\n(§3) To determine the kinetic stability of the produced enzymes, thermostability assays were performed. To this end, purified protein samples were diluted to a protein concentration of 0.1 mg/mL in 20 mM Tris-HCl buffer pH 7.5 and aliquots were incubated in a thermocycler for 10 min at either 45, 55, 65, 75, 80, 85, 90, 95 or 99° C. After this incubation, the aliquots were stored at 4° C. until further analysis. A reference aliquot was stored at 4° C. throughout the incubation. Subsequently, all aliquots were assayed for residual OTA detoxification activity using the assay described in Example 3. Residual enzyme activities were calculated relative to the reference aliquot. The temperature range in which 50% of the initial activity was lost after the incubation (T50), in relation to the reference aliquot was determined.", "values": [
      {"molecule": "B1", "T50 (temperature range in which 50% of the initial activity was lost after the incubation)": "90-95 °C"},
      {"molecule": "B2", "T50 (temperature range in which 50% of the initial activity was lost after the incubation)": "85-90 °C"}
    ]},
    {"assay": "Thermostability assay: residual OTA detoxification activity after 10 min incubation at 45-99° C. (T50)", "assay_type": "physicochemical", "conditions": "0.1 mg/mL protein in 20 mM Tris-HCl pH 7.5, residual OTA detoxification activity relative to 4° C. reference aliquot", "method": "as §2, §3", "values": [
      {"molecule": "B3", "T50 (temperature at which 50% of the initial activity was maintained)": "65 °C"},
      {"molecule": "B4", "T50 (temperature at which 50% of the initial activity was maintained)": ">95 °C"},
      {"molecule": "B5", "T50 (temperature at which 50% of the initial activity was maintained)": ">95 °C"},
      {"molecule": "B6", "T50 (temperature at which 50% of the initial activity was maintained)": ">95 °C"},
      {"molecule": "B7", "T50 (temperature at which 50% of the initial activity was maintained)": ">95 °C"},
      {"molecule": "B8", "T50 (temperature at which 50% of the initial activity was maintained)": ">95 °C"},
      {"molecule": "B9", "T50 (temperature at which 50% of the initial activity was maintained)": ">95 °C"},
      {"molecule": "B10", "T50 (temperature at which 50% of the initial activity was maintained)": ">95 °C"},
      {"molecule": "B11", "T50 (temperature at which 50% of the initial activity was maintained)": ">95 °C"},
      {"molecule": "B12", "T50 (temperature at which 50% of the initial activity was maintained)": "<63.2 °C"},
      {"molecule": "B13", "T50 (temperature at which 50% of the initial activity was maintained)": "74.4-77.0 °C"},
      {"molecule": "B14", "T50 (temperature at which 50% of the initial activity was maintained)": "68.8-70.7 °C"},
      {"molecule": "B15", "T50 (temperature at which 50% of the initial activity was maintained)": "70.7-72.6 °C"}
    ]}
  ]
}
